Article PMC3795266, “Nitrogen Oxyanion-dependent Dissociation of a Two-component Complex That Regulates Bacterial Nitrate Assimilation” (The Journal of Biological Chemistry, 2013)

How the values were obtained:
[1] = biological target: NasT (His-tagged recombinant P. denitrificans NasT) (Paracoccus denitrificans PD1222); experiment: SEC; analytical Superdex 200 HR 10/30, equilibration buffer supplemented with 1 mM NO3-; fractions analysed by SDS-PAGE
[2] = biological target: NasT (His-tagged recombinant P. denitrificans NasT) (Paracoccus denitrificans PD1222); experiment: AUC; sedimentation equilibrium of the purified complex, no NO3-; 50 mM NaHEPES, 100 mM NaCl, pH 7.5; 7.5, 12 and 16 krpm; 10 uM protein; ideal one-component fit
NasS-NasT = biological target: T1, NasS-NasT (Paracoccus denitrificans, UniProt A1BAH4); experiment: intrinsic tryptophan fluorescence quench (ex […] nm, em […] nm); type: binding; conditions: read-out: KD^app
T1 construct: gene Pden_4454; co-expressed from pET-24a/nasTS in E. coli BL21(DE3); N-terminal His6-tag on NasT (tag kept), NasS untagged; NasS ~42 kDa, NasT ~22 kDa; heterotetramer ~132 kDa (two NasS, two NasT); with Response regulator NasT, ANTAR domain-containing positive regulator
T1 sequence (A1BAH4 1-390): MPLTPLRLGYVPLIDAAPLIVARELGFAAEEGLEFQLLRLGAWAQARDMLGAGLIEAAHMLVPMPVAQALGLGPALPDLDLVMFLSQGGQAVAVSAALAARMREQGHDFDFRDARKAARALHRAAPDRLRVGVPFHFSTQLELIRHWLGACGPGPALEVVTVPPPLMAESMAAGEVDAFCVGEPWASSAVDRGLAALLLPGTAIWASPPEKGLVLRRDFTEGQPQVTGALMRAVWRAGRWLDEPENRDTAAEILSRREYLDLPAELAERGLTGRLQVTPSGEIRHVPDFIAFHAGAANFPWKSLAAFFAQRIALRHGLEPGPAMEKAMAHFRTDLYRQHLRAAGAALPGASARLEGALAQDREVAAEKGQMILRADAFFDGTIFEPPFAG
T1 sequence (A1BAH5 1-196 partner): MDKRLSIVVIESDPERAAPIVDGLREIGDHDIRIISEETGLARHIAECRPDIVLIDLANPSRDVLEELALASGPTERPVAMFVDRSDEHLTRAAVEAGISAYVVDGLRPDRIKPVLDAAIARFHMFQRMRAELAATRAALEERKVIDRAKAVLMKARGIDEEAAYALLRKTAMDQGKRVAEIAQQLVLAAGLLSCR

Molecule | Kd (NasS-NasT) [µM] | further results
NasT (His-tagged recombinant P. denitrificans NasT) (natural protein) |  | stoichiometry N [1]: 6 monomers
NasS (recombinant P. denitrificans NasS) (natural protein) |  | stoichiometry N (NasS per NasT (2:2)) [2]: 1
O=[N+]([O-])O [NO3^−] | 15 ± 2 | 
O=NO [NO2^−] | 94 ± 12 | 
